Bridges are numbered along the chain shown (N, C = ends). Where no end group is shown, it is not given here. [ ]: non-standard residue; d: D form. The star is where a group is joined. Biotin = O=C1N[C@H]2[C@H](CS[C@H]2CCCCC(=O)*)N1; R8 = C=CCCCCCC[C@@](C)(N)C(=O)O; Cba = N[C@@H](CC1CCC1)C(=O)O; S5 = C=CCCC[C@](C)(N)C(=O)O
Target: T1, recombinant HDMX (amino acids 1-490 of SEQ ID NO:104) (Homo sapiens, UniProt O15151)
T1 construct: thioredoxin (N, cleaved yes); S tag (N, cleaved yes); hexahistidine (N, cleaved yes); made in house; host or cells: E. coli (inferred: pET32-LIC vector, handled as described for HDM2 in BL21(DE3))
T1 sequence (O15151 1-490): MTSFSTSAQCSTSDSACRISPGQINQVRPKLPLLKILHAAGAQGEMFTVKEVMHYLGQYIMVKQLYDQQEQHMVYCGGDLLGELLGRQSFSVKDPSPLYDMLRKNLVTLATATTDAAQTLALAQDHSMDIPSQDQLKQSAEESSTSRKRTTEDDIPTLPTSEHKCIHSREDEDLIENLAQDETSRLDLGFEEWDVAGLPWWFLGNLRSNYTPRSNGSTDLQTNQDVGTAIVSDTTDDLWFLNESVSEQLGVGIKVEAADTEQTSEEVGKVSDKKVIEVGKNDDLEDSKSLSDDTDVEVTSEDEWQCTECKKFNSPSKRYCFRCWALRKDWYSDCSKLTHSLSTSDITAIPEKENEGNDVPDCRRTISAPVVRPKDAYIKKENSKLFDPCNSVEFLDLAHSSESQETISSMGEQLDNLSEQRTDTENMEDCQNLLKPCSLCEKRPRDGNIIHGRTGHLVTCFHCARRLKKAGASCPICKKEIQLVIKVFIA
Assay: Competitive streptavidin pull-down of biotinylated peptides with 1:1 recombinant HDM2/HDMX mixture, HDMX western
Type: binding
Conditions: biotinylated stapled peptide, 1:1 mixture of recombinant HDM2 and HDMX

Row | Substance | HDMX versus HDM2 binding selectivity | further results
1 | SAH-p53-4 L14A: Formula (I) stapled peptide: [Xaa]w ASQETF, [Xaa]x DLWKLL, [Xaa]y EN (ASQETF[R8]DLWKLL[S5]EN-NH2; staple 7-14; also: biotinylated) | dual selectivity to HDMX and HDM2 | –
2 | LTF8EYWAQBXAAA (Biotin-LTF[R8]EYWAQ[Cba][S5]AAA-NH2; staple 4-11) [ATSP-7041 S28A] | restored dual HDM2/HDMX binding selectivity | HDMX versus HDM2 binding selectivity (listed as SEQ ID NO:79): dual-selectivity to HDMX and HDM2
3 | ATSP-7041 B26K (Biotin-LTF[R8]EYWAQK[S5]SAA-NH2; staple 4-11; SMILES CC(C)C[C@H](NC(=O)CCCC[C@@H]1SC[C@@H]2NC(=O)N[C@@H]21)C(=O)N[C@H](C(=O)N[C@@H](Cc1ccccc1)C(=O)N[C@]1(C)CCCCCCC=CCCC[C@@](C)(C(=O)N[C@@H](CO)C(=O)N[C@@H](C)C(=O)N[C@@H](C)C(N)=O)NC(=O)[C@H](CCCCN)NC(=O)[C@H](CCC(N)=O)NC(=O)[C@H](C)NC(=O)[C@H](Cc2c[nH]c3ccccc23)NC(=O)[C@H](Cc2ccc(O)cc2)NC(=O)[C@H](CCC(=O)O)NC1=O)[C@@H](C)O) | HDMX selectivity over HDM2 | HDMX versus HDM2 binding selectivity (listed as SEQ ID NO:64): selectivity to HDMX
4 | LTF8EYWEQBXEAA (LTF[R8]EYWEQ[Cba][S5]EAA-NH2; staple 4-11; not fully specified (N-terminus); printed as LTF8EYWEQBXEAA) [ATSP-7041 A24E/S28E] | restored dual HDM2/HDMX binding selectivity | HDMX versus HDM2 binding selectivity (listed as SEQ ID NO:81): dual-selectivity to HDMX and HDM2
5 | ATSP-7041 B26W (Biotin-LTF[R8]EYWAQW[S5]SAA-NH2; staple 4-11; SMILES CC(C)C[C@H](NC(=O)CCCC[C@@H]1SC[C@@H]2NC(=O)N[C@@H]21)C(=O)N[C@H](C(=O)N[C@@H](Cc1ccccc1)C(=O)N[C@]1(C)CCCCCCC=CCCC[C@@](C)(C(=O)N[C@@H](CO)C(=O)N[C@@H](C)C(=O)N[C@@H](C)C(N)=O)NC(=O)[C@H](Cc2c[nH]c3ccccc23)NC(=O)[C@H](CCC(N)=O)NC(=O)[C@H](C)NC(=O)[C@H](Cc2c[nH]c3ccccc23)NC(=O)[C@H](Cc2ccc(O)cc2)NC(=O)[C@H](CCC(=O)O)NC1=O)[C@@H](C)O) | HDMX selectivity over HDM2 | –

Now from value to substance, other results behind:

Row | HDMX versus HDM2 binding selectivity | Substance | further results
6 | dual selectivity to HDMX and HDM2 | SAH-p53-4 E17R: Formula (I) stapled peptide: [Xaa]w LSQRTF, [Xaa]x DLWKLL, [Xaa]y EN (LSQRTF[R8]DLWKLL[S5]EN-NH2; staple 7-14; not fully specified (N-terminus)) | –
7 | selectivity to HDM2 | SAH-p53-4 S15R: Formula (I) stapled peptide: [Xaa]w LRQETF, [Xaa]x DLWKLL, [Xaa]y EN (LRQETF[R8]DLWKLL[S5]EN-NH2; staple 7-14; not fully specified) | –
8 | HDMX selectivity over HDM2 | SAH-p53-4 D21A: Formula (I) stapled peptide: [Xaa]w LSQETF, [Xaa]x ALWKLL, [Xaa]y EN (LSQETF[R8]ALWKLL[S5]EN-NH2; staple 7-14; not fully specified (N-terminus)) | HDMX versus HDM2 binding selectivity (listed as SEQ ID NO:8): selectivity to HDMX
9 | dual selectivity to HDMX and HDM2 | SAH-p53-4 L22A: Formula (I) stapled peptide: [Xaa]w LSQETF, [Xaa]x DAWKLL, [Xaa]y EN (LSQETF[R8]DAWKLL[S5]EN-NH2; staple 7-14; also: biotinylated) | –
10 | selectivity to HDM2 | SAH-p53-4 T18R: Formula (I) stapled peptide: [Xaa]w LSQERF, [Xaa]x DLWKLL, [Xaa]y EN (LSQERF[R8]DLWKLL[S5]EN-NH2; staple 7-14; not fully specified) | –
11 | dual selectivity to HDMX and HDM2 | SAH-p53-4 D21E: Formula (I) stapled peptide: [Xaa]w LSQETF, [Xaa]x ELWKLL, [Xaa]y EN (LSQETF[R8]ELWKLL[S5]EN-NH2; staple 7-14; not fully specified (N-terminus)) | –

From patent publication US20230192789A1, “STRUCTURALLY-STABILIZED AND HDMX-SELECTIVE P53 PEPTIDES AND USES THEREOF” (Dana-Farber Cancer Institute, Inc., priority 2020, published 2023)
